experiment: soluble on expression in E. coli; label from the status in PepcDB or PDB records

Row | Sequence | soluble on expression in E. coli
1 | MEGNHEEPQGGLEELSGRWHSVALASNKSDLIKPWGHFRVFIHSMSAKDGNLHGDILIPQDGQCEKVSLTAFKTATSNKFDLEYWGHNDLYLAEVDPKSYLILYMINQYNDDTSLVAHLMVRDLSRQQDFLPAFESVCEDIGLHKDQIVVLSDDDRCQGSRDLEHHHHHH | soluble
2 | MEGPLTIPVLDKGFVRLVDQMGDDRAIVQAARVSYGEGTKTVREDAALIDYLMRHRHTSPFEMVVFKFHVKAPIFVARQWFRHRTASVNEISGRYSILKEEFYEPEAFRKQAKRNKQASEGALLDEEALALLRKVQQEAYGAYRALLEKGVAREMARMVLPLNLYTEFYWKQDLHNLFHFLKLRLAPEAQWEIRQYARAIAEIVKERVPLAWAAFEEHLLEGAFLSRTELRALRGLLTPEVYEKALSSLGLGGSRLKEALEKVFGPGEAL | soluble
3 | MEIIYPPLVEEGLKYYLETTQQSLDKSTFYRSMVERGIITETGLPTQQAIENGLVKDYYEDQGLSFDDFLRIYPIFEEYDEELFQCIDGYWEIPVDMKENLASQLESGELTFEDAQQIQAYLEDR | not soluble
4 | MEITNPILTGFNPDPSLCRQGEDYYIATSTFEWFPGVRIYHSRDLKNWSLVSTPLDRVSMLDMKGNPDSGGIWAPCLSYADGKFWLLYTDVKIVDSPWKNGRNFLVTAPSIEGPWSEPIPMGNGGFDPSLFHDDDGRKYYIYRPWGPRHHSNPHNTIVLQAFDPQTGTLSPERKTLFTGTPLCYTEGAHLYRHAGWYYLMAAEGGTSYEHAVVVLRSKNIDGPYELHPDVTMMTSWHLPENPLQKSGHGSLLQTHTGEWYMAYLTSRPLRLPGVPLLASGGRGYCPLGRETGIARIEWRDGWPYVEGGKHAQLTVKGPQVAEQPAAVPGNWRDDFDASSLDPELQTLRIPFDDTLGSLTARPGFLRLYGNDSLNSTFTQSTVARRWQHFAFRAETRMEFSPVHFQQSAGLTCYYNSKNWSYCFVDYEEGQGRTIKVIQLDHNVPSWPLHEQPIPVPEHAESVWLRVDVDTLVYRYSYSFDGETWHTVPVTYEAWKLSDDYIGGRGFFTGAFVGLHCEDISGDGCYADFDYFTYEPV | soluble
5 | MEKADIEAIFARSRFISAMNLEILDIDHAGSRFSVRMPLQDTYERGAPGTKQFHGGALAALIDVVGDFAIGMLVGGGVPTMNLRIDYLRPAVGDYVDGVAVVRKAGKSAAVVDIDILCPAGKLVAIGRGTYVPITGLEHHHHHH | not soluble
6 | MEKAYDFEVEAPPEVVRDYLMNPENLMKYIPHFKDLKRVDDGWELYVSWLFTIKLKVKRVFTNTDIIYLVEKSEGLIKIKSSLRFTIFPSKGGITIVRLVFFYDGPFESIVKGQADAFYRKGKEVFKTEMTKEKRIQEEQNGVKGEVSIYEMKTIFSGKINKDELEKYLEIAMVKSVNSTVVVILSDERNIIEIKFKGGELVAQKGDLDSLSSPITILIKQLEHHHHHH | soluble
7 | MEKERYFQAETEGEQPETKAEEATAAITQLGQTNVPQMDPDTNIHCLTIVGQIEGHIQLPPQNKATKYEHVIPQIVAIEQNPKIEGLLVILNTVGGDVEAGLAIAEMLASLSKPTVSVVLGGGHSIGVPIAVSCNYSFITETATMTIHPIRLTGLVIGVPQTFEYLDKMQERVVRFVTKHSKISEEKFKELMFSKGNLTRDIGTNVVGPDAVRYGLIDEVGGVSQAMAKLRELIAMRKNGEGKMIQ | not soluble
8 | MEKIVVIKYKDIKLKSPILIGGLPGIGNVGKIAADYIVEKLNMTKMYDIFSQYLPPQVFINDDSVVHLVRNSIYYKKMRGKHDLVILAGDFQGTTQEAQYELSYQVLQIAKEIGVSMIYTLGGYSIGKIVDKPRVLGAVTDKNLVADLEKNGVVFPKGEPGGGIVGSAGLILGLGMELFNMNGACLMGETSGYFADPKSAMEVLNVLQRQLGIKIDMSDIETRSKQIEQITGKMAEEFQNKQNKEDLGYFG | soluble
9 | MEKIVYEQLKETLYYEKLPNGLDVYILPKQGFNKTFATSTTKYGSVDNTFVPLGKEEMIRVPDGIAHFLEHKLFEKEDHDAFQLFSKQGASANAFTSFTRTAYLFSCTSNVEQNLNTLLNFVQEPYFSEKTVEKEKGIIGQEIQMYQDNPDWRLYFGLIDSLFVKHPIKIDIAGTIESISKITKDLLYECYETFYHPSNMLMFVVGAIDPEKTMDLVHENQAKKDYKNQPEIVRSFEEEPDEVNEKKKIISMPVQTPKCLVGIKATNLKEKGEALLKQEIALTLLLDYLFGKSSVHYESLYNEGLIDDTFSYDYTEENNFGFAMVGGDTKQPDELEERLKSILLNTNYNQLDEAALERVKKKKIGGFLRSLNSPEYIANQFTRYAFNESSLFDALTVLESLTVQDLQEVAQLLLSEEKMSVCQVLPKK | not soluble
10 | MEKKHIYLFCSAGMSTSLLVSKMRAQAEKYEVPVIIEAFPETLAGEKGQNADVVLLGPQIAYMLPEIQRLLPNKPVEVIDSLLYGKVDGLGVLKAAVAAIKKAAAN | soluble
11 | MEKKTIVLGVIGSDCHAVGNKILDHAFTNAGFNVVNIGVLSPQEVFIKAAIETKADAILLSSLYGQGEIDCKGLRQKCDEAGLEGILLYVGGNIVVGKQHWPDVEKRFKDMGYDRVYAPGTPPEVGIADLKKDLNIE | soluble
12 | MEKKVQIAVYENENFKRVAEIVKKKSIATVCEEALCPNIMECWGSGTATFMIMGSICTRGCRFCYVLKGKPSPLDDEEPKRVAEAVKEMELDYVVITSVDRDDLSDGGAQHFANVVKTVKELNPGIIVEVLTPDFRGNIDAVKKVIDAGVDVFAHNVETVRRLTPIVRDPRASYEQSLNVLKYAENVIKKSSILLGLGETWDEIVETMRDLRSVGVSILVLSQYMRPSRKQLEVKKRYTLEEFKELEEIAYSMGFSAVISLPLARTSYKAKEAYFRAIENAKNHS | not soluble
13 | MEKLGLEHVCGDLNTEVEHGFTCDLLSEVLGKAQPSTLWITVQSHVNIIAVATVVGIKGIVLCDGHEYEKDTVKKAEENGVVLLKSQENSFIVSGKVYELGLRLEHHHHHH | not soluble
14 | MEKNEKNGVFSRVRSRWRSIFSKKANPVKLRDCNRLTFERILSDPNEQIGTIVAQATVEPITLPNGGGIALIQETTLYEEDYGLEDSSNFPIISETAQSLRRRMRRLSSGDLNVIRRMTEEIDFDLKNIIYDGNEITGETDADNGNDRACFKPGPDYPIDQQMLFLKQCIKKIDTRPPNMYYLTNGWSVDNFEALFKYMIRSGEDCSRDTLLRVEFRDCVVSLKSLYDFIEEYATFKGVKMHSDYVYAIVHSRNEKLERRLRGAIDSFMEIESKIRQARISYVSSFTINSPHTPNVSIIVKFCCLKPCNSDAKTKMRQISVQVDHVTGRSRMSLPDVRQHEGLVCECLGDFSLIRHRPTSVPVTKILDEHPPLIVDEEVRLKSSYQFNPVTGEPIPDDEQQQEQTEIEVNKKIKKPKIVPNQTLLGNEHDIFPRFSIFIGFYKASIEDPLEINDFVEMFPLILVLLEKAGIQELEDGDAPEKSVSKYPKKRSIVDGASSETCEDTQSVGSSESSEPRSPEFTEYSESEDTAADSETSDSESSSEDEKENMKSSIKELELIKDAPEDL | soluble
15 | MEKNGYIDPYTTVMNYLSITPGKWEIKYNENIRGISGKEHRFDAVYRSQEGEIVTVMVVLRTEDLEKRLDDFKNGSKDVRAKRKFLIVCGEINSDMVSELKSENISILMLPGMFCSQVSSYNADAGSNDAPRSLPDGGIEESQRKRSRANIIMDLIRAINENSNQIPVTRLFYACNINHRMGRSIIEDLEHAGIVILRKTGPNRNVVELTRKGISLINDYEFIREILEK | not soluble
16 | MEKQNIAVILARQNSKGLPLKNLRKMNGISLLGHTINAAISSKCFDRIIVSTDGGLIAEEAKNFGVEVVLRPAELASDTASSISGVIHALETIGSNSGTVTLLQPTSPLRTGAHIREAFSLFDEKIKGSVVSACPMEHHPLKTLLQINNGEYAPMRHLSDLEQPRQQLPQAFRPNGAIYINDTASLIANNCFFIAPTKLYIMSHQDSIDIDTELDLQQAENILNHKES | soluble
17 | MEKSGGRIVMDEIRSFEKAHLFDLGHPLLNRIADSFVKAAGVSFDSNNVGPPSEITGNKKHRFPNLRGESSKSLDALVKNTGKESLQWGLAAGLYSGITYGMTEVRGGAHDWRNSAVAGALTGAAMAMTTSERTSHEQVVQSALTGAAISTAANLLSSVF | soluble
18 | MEKVAFIGLGAMGYPMAGHLARRFPTLVWNRTFEKALRHQEEFGSEAVPLERVAEARVIFTCLPTTREVYEVAEALYPYLREGTYWVDATSGEPEASRRLAERLREKGVTYLDAPVSGGTSGAEAGTLTVMLGGPEEAVERVRPFLAYAKKVVHVGPVGAGHAVKAINNALLAVNLWAAGEGLLALVKQGVSAEKALEVINASSGRSNATENLIPQRVLTRAFPKTFALGLLVKDLGIAMGVLDGEKAPSPLLRLAREVYEMAKRELGPDADHVEALRLLERWGGVEIR | soluble
19 | MELATTQSVLMQIQPTIQRFARMLASVLQLEVEIVDENLCRVAGTGAYGKFLGRQLSGNSRLLRHVLETKTEKVVTQSRFDPLCEGCDSKENCREKAFLGTPVILQDRCVGVISLIAVTHEQQEHISDNLREFSDYVRHISTIFVSKLLEDQGPGDNISKIFATMIDNMDQGVLVVDDENRVQFVNQTALKTLGVVQNNIIGKPIRFRPLTFESNFTHGHMQHIVSWDDKSELIIGQLHNIQGRQLFLMAFHQSHTSFSVANAPDEPHIEQLVGECRVMRQLKRLISRIAPSPSSVMVVGESGTGKEVVARAIHKLSGRRNKPFIAINCAAIPEQLLESELFGYVKGAFTGASANGKTGLIQAANTGTLFLDEIGDMPLMLQAKLLRAIEAREILPIGASSPIQVDIRIISATNQNLAQFIAEGKFREDLFYRLNVIPITLPPLRERQEDIELLVHYFLHLHTRRLGSVYPGIAPDVVEILRKHRWPGNLRELSNLMEYLVNVVPSGEVIDSTLLPPNLLNNGTTEQSDVTEVSEAHLSLDDAGGTALEEMEKQMIREALSRHNSKKQVADELGIGIATLYRKIKKYELLNT | not soluble
20 | MELFTFIPYFLLLEREESDRNTLANANTEFIREVYELQRVEKDVTLVFFQLQYLSCKLVILREHYRTAQKEHLPCYAYIIGTLEYLKGLLDRCRFIHKCGSAIAPACLPTTEGDPPVCWTAEVICLMELLYACHELKMFNGGEVTLGRVVEYVCHVLGVNVKNASSYYARMRRRKAGDRTYFIDRLREVLLKRMEDDDEGHRRRNR | not soluble
21 | MELKILVTGGNVFVPGRLNAHFSTVVYLEHKDRRIIIDPGNLSSMDELEEKFSELGISPDDITDVLFTHVHLDHIFNSVLFENATFYVHEVYKTKNYLSFGTIVGRIYSKVISSWKNVVLLKGEESLFDEKVKVFHTPWHAREHLSFLLDTENAGRVLITGDITPNRLSYYDIIKGYGSVQVKNFLDRVGRIDLLVFPHDAPLKPEVKK | not soluble
22 | MELNMLYLFTASNDSAIKNLEATIEKIYPISTCLADLDADTVTKLKDNELHENVCMWGATPGSSNVDRWEKLKEGDRILAYSKGEFKFFGTIFAKTHNPDVARKI | not soluble
23 | MELPILPTSVIGSYPKPRWLLRMYRLRDLGKIPEEDFKEAVKDASVSVLREHERAGVDIPWDGEMWRTEMTEHFTAKIGGFKFYGPVRVWGNAYFNKAAAVDKLEYKEPLVLEEFLWVKKNTTREVVKIPITGPYTIAEWSFNEYYPDKESFIMDLAKIINKELKMLENHGALYIQLDEPAMLNHPDEVPLAVEAINKAVKGIKIKVGLHVCYSNYYLLADYFDEIRVTQFALEFANRQFRDMDFLKKLSNKELGFGVVDVHNPRIESVEEIVKAIKKVFEYVEPELLYINPDCGMKLLDRNIAYNKLVNMVKATELVRKELEREGKKTTEFRTLKDILEHHHHHH | not soluble

From the DeepSol protein solubility set
